# Measured values taken from patent publication US20240131147A1.
# Target: HIV-1 Clade B Env RHPA on pseudotyped virus (HIV-1)
# Assay: competition ELISA on coated RHPA pseudovirus; competitors: sera of MLA092- and MLA025-immunized mice diluted 1:400
substance,measurement,value
10E8 broadly neutralizing human anti-HIV-1 Env monoclonal antibody,concentration that completely inhibited the binding of sera,2 µg/mL
